The results in this text go back to US20250043259, “ENDONUCLEASES THAT SELECTIVELY CLEAVE SINGLE-STRANDED NUCLEIC ACIDS AND USES THEREOF” (INSTITUT NATIONAL DE LA RECHERCHE SCIENTIFIQUE, published 2025).

For data set [1], the target named is T1, SsnA (NMV_0044) (Neisseria meningitidis 8013 2C4.3, UniProt Q9K1N6 Q9K1N6:1-94).
T1 sequence: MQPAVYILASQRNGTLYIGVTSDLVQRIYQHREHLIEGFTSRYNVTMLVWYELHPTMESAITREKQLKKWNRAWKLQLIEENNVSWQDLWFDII
The data set is described as follows: cleavage_in_vitro. The following applies: 10 mM MgCl2, 37 C optimum; abolished by EDTA.

The target of data set [2] is T1, SsnA (NMV_0044). The data set is described as follows: EMSA. The following applies: no Mg, 50 mM NaCl, 10 mM Tris pH 7.9, 37 C; 0.5 uM protein, 0.8 uM DNA.
The target in data set [3] is T1, SsnA (NMV_0044). The data set is described as follows: EMSA; binding preserved, cleavage reduced to varying extents. The following applies: tags: N-terminal 6xHis; label: 5'-carboxyfluorescein; hairpin. The method, then: (§1) Electrophoretic mobility shift assay (EMSA). Gel shift assays, or EMSA, were performed by diluting the proteins in Diluent A (NEB) to the indicated working concentrations. 5′carboxyfluorescin-tagged oligos corresponding to genomic regions of N. meningitidis MC58 were synthesized from Sigma. When needed, complementary oligonucleotides were annealed by mixing equimolar amounts in annealing buffer (10 mM Tris-HCl PH8, 50 mM NaCl, 1 mM EDTA), incubating them 5 minutes at 95° C. and letting them slowly cool down. For the gel-shift assays, proteins were mixed with the fluorescent oligonucleotides in a reaction buffer containing 50 mM NaCl, 10 mM Tris-HCl, 100 μg/ml BSA, pH7.9. The mixes were incubated at 37° C. for 30 minutes before adding native loading dye. Samples were resolved on native 10% TBE-acrylamide gels and imaged with a Typhoon FLA9500 scanner. For branched DNA binding assays, a similar approach was used but the gel was stained with GelStain (Biotium) and imaged on a GelDoc (BioRad) since the oligonucleotides were not fluorescently labelled.

The target of data set [4] is T1, SsnA (NMV_0044). Briefly: EMSA; unable to interact with RNA. To be noted: tags: N-terminal 6xHis. The method, then: as §1
Data set [5] has as its target T1, SsnA (NMV_0044). Briefly: EMSA; no Mg, 37 C; also not cleaved. The following applies: tags: N-terminal 6xHis; label: 5'-carboxyfluorescein. As for the experimental part: Gel-shift (top, EMSA) and endonuclease (bottom) assays of 0.5 μM SsnA with 0.8 µM of DNA. Magnesium was omitted from the EMSA reaction mix to allow DNA binding by SsnA without nuclease activity. ssDNArev is the reverse complement of ssDNA. dsDNA is the double-stranded annealed product from ssDNA with ssDNArev. The arrow represents the recognition pattern (NTS repeat) of SsnA. Unless otherwise indicated (last well), assayed proteins were his-tagged.
as §1, with “For branched DNA binding assays, a similar approach was used but the gel was stained with GelStain (Biotium) and imaged on a GelDoc (BioRad) since the oligonucleotides were not fluorescently labelled.” left out

The molecule ssDNA (100 nt, NTS) registered an activity with SsnA (NMV_0044) [1] of 100 % cleaved. In the data set with SsnA (NMV_0044) [2], this molecule yielded a binding of 100 % bound.

B1: NTS#4 (ssDNA)
DNA: TAAATGACCCCAACTTAAAATCCCGTCATTCCCGCGCAGGCGGGAATCTAGGTCTGTCGGTGCGGAAACTTATCGGGTAAAACGGTTTCTTGAGATTTTG
Regarding B1, the binding result with SsnA (NMV_0044) [3] was “binds”.

B2: NTS#2 (ssDNA)
DNA: GTCATTCCCACGAACCTACATTCCGTCATTCCCACGAAAGTGGGAATCTAGAATCTCTAAAGCTTCAGCTAACCTTTGAATATTGCTGTTGTTCTAAGGT
For the molecule B2, the binding result with SsnA (NMV_0044) [3] is on record as “binds”.

B3: NTS#3 (ssDNA)
DNA: ATCCCGTCATTCCCGCCACTTTCCGTCATTCCCGCGAAAGCGGGAATCTAGAATCTCGGACTTTCAGATAATCTTTGAATATTGCTGTTGTTCTAAGGTC
Turning to B3, in the data set with SsnA (NMV_0044) [3], the binding result is “binds”.

B4: NTS#5 (ssDNA)
DNA: GTCATTCCCACGAACCTACATTCCGTCATTCCCACGAAAGTGGGAATCCAGTGCGTTGAGTTTCAGTCATTTCCAATAAATTGCCTTAGTATTGAATGTC
For the molecule B4, the binding result with SsnA (NMV_0044) [3] was “binds”.

B5: NTS#1 (ssDNA)
DNA: GAGGTTTCGGGCAACTTCTAAACCGTCATTCCCGCGCAGGCGGGAATCCAGACCATTGGACAGCAGCAATATTCAAAGATTATCTGAAAGTCCGGGATTC
B5: the binding result with SsnA (NMV_0044) [3] is reported as “binds”.

On to AAAAAUAUUCCGUCAUUCCCGCGAAAGCGGGAAUCUA (ssRNA) [RNA37], for which the binding result with SsnA (NMV_0044) [4] is recorded as “no binding”.

B6: ssDNArev (ssDNA)
DNA: CCAGGTCTGTCGGTGCGGAAACTTATCGGATAAAACGGTTTCTTTAGATTTTACGTTCTAGATTCCCGCTTTCGCGGGAATGACGGAATATTTTTGAATT
modifications: [none]
B6: the binding result in the data set with SsnA (NMV_0044) [5] is listed as “no binding”.

B7: dsDNA (100 bp, NTS) (dsDNA)
DNA 1: AATTCAAAAATATTCCGTCATTCCCGCGAAAGCGGGAATCTAGAACGTAAAATCTAAAGAAACCGTTTTATCCGATAAGTTTCCGCACCGACAGACCTGG
DNA 2: CCAGGTCTGTCGGTGCGGAAACTTATCGGATAAAACGGTTTCTTTAGATTTTACGTTCTAGATTCCCGCTTTCGCGGGAATGACGGAATATTTTTGAATT
With B7, the binding result with SsnA (NMV_0044) [5] was “no binding”.
